The DeepSol protein solubility set

assay: soluble on expression in E. coli; label from the status in PepcDB or PDB records

Sequence | soluble on expression in E. coli
MSEPSNLVSKFQKLRVEASKIQNEFKEKPSYTLFKETLDISEKLLEKQFEFNDEMKQIQQNVMSELKSVKKELKQATSIKDLLEILEIIQKIFKKQDEFQQVQENQNKSIENLNSELKTVKAELNETKKQQESQEKLIDNSDKNLKLILESILKFQKSQDQIMMKIMEGSAVQDVPLGTVELTKIDPFFEILVIWTESCGIFASENHWKLRVCGSDTIRHIKLRINSLAKVDISSFRMVLRGKLLEDHHSLAYYNIQEGALIWLYSHLKMSETSSLMSQFQKLRVETSKIYNEFTEMVKNETSDMKKQQETQILKEQDEFQDEIRQEFLKIQENENKLIEKLMSELKTLKTELNETKNQISDLHNATKQQESQAQSMNDLLTKNSNNNLKMMLKIQEGQDRIMMKIQEGAAVKDVPIESGELAKNDSMFKIFVSWSIPGGIFVSENRRKLPVYESNTIRQIKLRINSLKSQDQMKIQEGEFAKKIEESVAPVKTPLEAPIEDKKLDNKKPFFKITVHLHGGPNASVYGRKYNHLVFDAHTIRDLKVRIKALIMQSSPIKLRTELYRLFFVYTLLEDHQTIAYYKFKKAQHLT | soluble
MSEQPQQRSTEEVEAIKEDILTALETVIDPELGIDIVNLGLIYEVEFAEETGDTVIKMTLTTMGCPLADVLTEQIHGVLKDIPEVNNIEVKLVWYPAWTTDKMSRYARIALGIR | not soluble
MSERESLSGADNAWRRMGTPTNLMTITGVMMFDERMTYEDLCNRLEERLLRFERFQQRIGGRKRRFRQPYWETVDGFDVEPHVYHISLPEPQDKATFEAFVGKLMSRPLDESRPLWEAYLVDGAGPGEGNAVAFRLNHSIGDGFALLYVLLGLVDNPGDIELPSGMVSAPDDIGDDADSGADGGNGSDESDVASGDGQPADTDSKSDGERGSSGLPSPVSAAGTAATGVATGYDLLFGDDDPDTSLRGELGQTKRAAWTDEIPLEQVRTVCEAQPHRATINDVLLAALAGALRRLLEDRGEPVDGMELHGTVPVNLKPMAERDGSLGNNFGLVFLPLPVGTEPLQERISIIHEWMDGKRAGIQAFLMYALLTIGGHVPEYVQKKVMTLFEDRATGVVTNVPGPTDAIQFAGREITDMIFWVPQANEQGIGISIFSYDGNVRVGVAADENLLGAPGELAAAFEAEMEALLEDAELEHHHHHH | soluble
MSESFDCAKCNESLYGRKYIQTDSGPYCVPCYDNTFANTCAECQQLIGHDSRELFYEDRHFHEGCFRCCRCQRSLADEPFTCQDSELLCNDCYCSAFSSQCSACGETVMPGSRKLEYGGQTWHEHCFLCSGCEQPLGSRSFVPDKGAHYCVPCYENKFAPRCARCSKTLTQGGVTYRDQPWHRECLVCTGCQTPLAGQQFTSRDEDPYCVACFGELFAPKCSSCKRPIVGLGGGKYVSFEDRHWHHNCFSCARCSTSLVGQGFVPDGDQVLCQGCSQAGP | soluble
MSESRLLTLRDYIRWAVSRFHAAGLFFGHGTDNAWDEARHLVLGSLHLPWEISDSYLDCRLEDDERAELAEILRRRIEERIPAAYLLGEAWFCGIPFSVDERVLVPRSPIAELIEQRFAPWLPAEPARILDLCTGSGCIGIACAYAFEQAEVVLADLSFDALEVANVNIERHDLGERVYTVQGDGFAGLPGQRFDLIVSNPPYVDAEDFADMPAEFHHEPELGLACGDDGLDLVRRMLAEAADHLSEKGLLIVEVGNSEVHVQALYPEVDFTWLEFEHGGHGVFMLSAAQCREHRELFRSRLEK | not soluble
MSESVQSNSAVLVHFTLKLDDGTTAESTRNNGKPALFRLGDASLSEGLEQHLLGLKVGDKTTFSLEPDAAFGVPSPDLIQYFSRREFMDAGEPEIGAIMLFTAMDGSEMPGVIREINGDSITVDFNHPLAGQTVHFDIEVLEIDPALEA | soluble
MSETFFHLLGPRTQPNDDSFSMNPLPITCQVNDEPSMAALEQCAHSPQVIALLNELQHQLSQRQPPLGEVLAVDLLNLNADDRHFINTLLGEGEVSVRIQQADDSESEIQEAIFCGLWRVRRRRGEKLLEDKLEAGCAPLALWQAATQNLLPTDSLLPPPIDGLMNGLPLAHELLAHVRNPDAQPHSINLTQLPISEADRLFLSRLCGPGNIQIRTIGYGESYINATGLRHVWHLRCTDTLKGPLLESYEICPIPEVVLAAPEDLVDSAQRLSEVCQWLAEAAPT | not soluble
MSETVQLDVGGTIFKTSKSTLTKFNGFLKIMLESDIGLKIDESGSIFIDRSPKHFDLILNFMRDGDVVLPSCELTVKELLAEAQFYLLDELIELCSLKIEPVQAPKIKLRFIENDSQLLQILAAQQKPMLIIEYCMVGNDMSIPYNFNLYEFIEKQSHQFDIYFQRLSEDESSHKWKARIKWKPTENGYYSQFPYNLRINRGGRIIRDAKFLFLFFSSWLSSKNHCSLLDMCMIPIDCIVCPFQKISMCVPSLIRIPISSRFISRNIKIISFGLQR | soluble
